Source: publication PMC7954794 (2021)

B1: S. cerevisiae Abp1 (full length; SH3 domain 535-592 mutated) / Hua2 (parent complex)
chain 1: MALEPIDYTTHSREIDAEYLKIVRGSDPDTTWLIISPNAKKEYEPESTGSSFHDFLQLFDETKVQYGLARVSPPGSDVEKIIIIGWCPDSAPLKTRASFAANFAAVANNLFKGYHVQVTARDEDDLDENELLMKISNAAGARYSIQTSSKQQGKASTPPVKKSFTPSKSPAPVSKKEPVKTPSPAPAAKISSRVNDNNDDDDWNEPELKERDFDQAPLKPNQSSYKPIGKIDLQKVIAEEKAKEDPRLVQKPTAAGSKIDPSSDIANLKNESKLKRDSEFNSFLGTTKPPSMTESSLKNDDDKVIKGFRNEKSPAQLWAERKAKQNSGNAETKAEAPKPEVPEDEPEGEPDVKDLKSKFEGLAASEKEEEEMENKFAPPPKKSEPTIISPKPFSKPQEPVKAEEAEQPKTDYKKIGNPLPGMHIEADNEEEPEENDDDWDDDEDEAAQPPLPSRNVASGAPVQKEEPEQEEIAPSLPSRNSIPAPKQEEAPEQAPEEEIEEEAEEAAPQLPSRSSAAPPPPPRRATPEKKPKENPWATAEYDYDAAEDNELTFVENDKIINIEFVDDDWWLGELEKDGSKGLFPSNYVSLGN
chain 2: MQQTKFGKMYLDHDSVVEYSEDEIVEADRITLGYKKRLSMIENQMRHLLEDFSLDVQQIEPILADLQKYYDAFLQLLQKRNKSLQCKRSTHQPVPSPMNSQTSTNAKVNLSGKLMKFQLNSVQKFDEENILRILQNKIEFEHYFQIDKGKKQKVLLLAVYQCLNGPTRLHKVLNIEGIIHNNSIRTILGKQVSSSKWTVFLYDVKLVLLAHRQDVPNLETSKMIVRYGDLFPCALYFKDHTAY

Variants of: B1
Test: DHFR protein-fragment complementation in yeast (Abp1-DHFR F[1,2] x partner-DHFR F[3]), deep mutational scanning, second methotrexate selection vs reference; S. cerevisiae, DHFR-PCA selection in liquid with methotrexate at 30 C, two 72 h selections (the score uses the second); reference = the pre-selection culture

Variant | screen value
chain 1 A546K | -0.851 DMS score: mean over two replicates of log2(f_test/f_ref + 0.5)/ln 2, minus the synonymous-codon median (not a log2 …
chain 1 A546E | 0.502 DMS score: mean over two replicates of log2(f_test/f_ref + 0.5)/ln 2, minus the synonymous-codon median (not a log2 …
chain 1 A546W | -0.986 DMS score: mean over two replicates of log2(f_test/f_ref + 0.5)/ln 2, minus the synonymous-codon median (not a log2 …
chain 1 A546S | 0.374 DMS score: mean over two replicates of log2(f_test/f_ref + 0.5)/ln 2, minus the synonymous-codon median (not a log2 …
chain 1 A546I | 0.793 DMS score: mean over two replicates of log2(f_test/f_ref + 0.5)/ln 2, minus the synonymous-codon median (not a log2 …
chain 1 A546L | -0.283 DMS score: mean over two replicates of log2(f_test/f_ref + 0.5)/ln 2, minus the synonymous-codon median (not a log2 …
chain 1 A546N | -0.272 DMS score: mean over two replicates of log2(f_test/f_ref + 0.5)/ln 2, minus the synonymous-codon median (not a log2 …
chain 1 A546T | 0.35 DMS score: mean over two replicates of log2(f_test/f_ref + 0.5)/ln 2, minus the synonymous-codon median (not a log2 …
chain 1 A546D | 0.862 DMS score: mean over two replicates of log2(f_test/f_ref + 0.5)/ln 2, minus the synonymous-codon median (not a log2 …
chain 1 D567N | -1.8 DMS score: mean over two replicates of log2(f_test/f_ref + 0.5)/ln 2, minus the synonymous-codon median (not a log2 …
chain 1 I560Q | -0.419 DMS score: mean over two replicates of log2(f_test/f_ref + 0.5)/ln 2, minus the synonymous-codon median (not a log2 …
chain 1 I560L | -0.196 DMS score: mean over two replicates of log2(f_test/f_ref + 0.5)/ln 2, minus the synonymous-codon median (not a log2 …
chain 1 F553I | 0.88 DMS score: mean over two replicates of log2(f_test/f_ref + 0.5)/ln 2, minus the synonymous-codon median (not a log2 …
chain 1 D548E | -0.357 DMS score: mean over two replicates of log2(f_test/f_ref + 0.5)/ln 2, minus the synonymous-codon median (not a log2 …
chain 1 D548F | -0.0924 DMS score: mean over two replicates of log2(f_test/f_ref + 0.5)/ln 2, minus the synonymous-codon median (not a log2 …
chain 1 D548L | -0.0418 DMS score: mean over two replicates of log2(f_test/f_ref + 0.5)/ln 2, minus the synonymous-codon median (not a log2 …
chain 1 D548S | 0.431 DMS score: mean over two replicates of log2(f_test/f_ref + 0.5)/ln 2, minus the synonymous-codon median (not a log2 …
chain 1 D544A | 0.497 DMS score: mean over two replicates of log2(f_test/f_ref + 0.5)/ln 2, minus the synonymous-codon median (not a log2 …
chain 1 D544E | -0.1 DMS score: mean over two replicates of log2(f_test/f_ref + 0.5)/ln 2, minus the synonymous-codon median (not a log2 …

Variant | screen value
chain 1 D544G | -0.178 DMS score: mean over two replicates of log2(f_test/f_ref + 0.5)/ln 2, minus the synonymous-codon median (not a log2 …
chain 1 G591E | 1.01 DMS score: mean over two replicates of log2(f_test/f_ref + 0.5)/ln 2, minus the synonymous-codon median (not a log2 …
chain 1 G591R | -0.62 DMS score: mean over two replicates of log2(f_test/f_ref + 0.5)/ln 2, minus the synonymous-codon median (not a log2 …
chain 1 G591P | 0.961 DMS score: mean over two replicates of log2(f_test/f_ref + 0.5)/ln 2, minus the synonymous-codon median (not a log2 …
chain 1 G591W | -0.547 DMS score: mean over two replicates of log2(f_test/f_ref + 0.5)/ln 2, minus the synonymous-codon median (not a log2 …
chain 1 G591A | 0.673 DMS score: mean over two replicates of log2(f_test/f_ref + 0.5)/ln 2, minus the synonymous-codon median (not a log2 …
chain 1 G591T | 0.63 DMS score: mean over two replicates of log2(f_test/f_ref + 0.5)/ln 2, minus the synonymous-codon median (not a log2 …
chain 1 G591N | 0.941 DMS score: mean over two replicates of log2(f_test/f_ref + 0.5)/ln 2, minus the synonymous-codon median (not a log2 …
chain 1 F564H | -2.23 DMS score: mean over two replicates of log2(f_test/f_ref + 0.5)/ln 2, minus the synonymous-codon median (not a log2 …
chain 1 D568F | -2.94 DMS score: mean over two replicates of log2(f_test/f_ref + 0.5)/ln 2, minus the synonymous-codon median (not a log2 …
chain 1 D568T | -2.96 DMS score: mean over two replicates of log2(f_test/f_ref + 0.5)/ln 2, minus the synonymous-codon median (not a log2 …
chain 1 E540A | -0.942 DMS score: mean over two replicates of log2(f_test/f_ref + 0.5)/ln 2, minus the synonymous-codon median (not a log2 …
chain 1 E540C | -1.63 DMS score: mean over two replicates of log2(f_test/f_ref + 0.5)/ln 2, minus the synonymous-codon median (not a log2 …
chain 1 E540V | -2.31 DMS score: mean over two replicates of log2(f_test/f_ref + 0.5)/ln 2, minus the synonymous-codon median (not a log2 …
chain 1 E547T | -2.64 DMS score: mean over two replicates of log2(f_test/f_ref + 0.5)/ln 2, minus the synonymous-codon median (not a log2 …
chain 1 E547N | -1.94 DMS score: mean over two replicates of log2(f_test/f_ref + 0.5)/ln 2, minus the synonymous-codon median (not a log2 …
chain 1 E547L | -0.584 DMS score: mean over two replicates of log2(f_test/f_ref + 0.5)/ln 2, minus the synonymous-codon median (not a log2 …
chain 1 E547D | -0.281 DMS score: mean over two replicates of log2(f_test/f_ref + 0.5)/ln 2, minus the synonymous-codon median (not a log2 …

More lines, now with the values ahead:

screen value | Variant
-1.01 DMS score: mean over two replicates of log2(f_test/f_ref + 0.5)/ln 2, minus the synonymous-codon median (not a log2 … | chain 1 Y541H
-2.54 DMS score: mean over two replicates of log2(f_test/f_ref + 0.5)/ln 2, minus the synonymous-codon median (not a log2 … | chain 1 Y541Q
0.62 DMS score: mean over two replicates of log2(f_test/f_ref + 0.5)/ln 2, minus the synonymous-codon median (not a log2 … | chain 1 W569F
-0.814 DMS score: mean over two replicates of log2(f_test/f_ref + 0.5)/ln 2, minus the synonymous-codon median (not a log2 … | chain 1 K576Q
-0.58 DMS score: mean over two replicates of log2(f_test/f_ref + 0.5)/ln 2, minus the synonymous-codon median (not a log2 … | chain 1 K576N
-0.301 DMS score: mean over two replicates of log2(f_test/f_ref + 0.5)/ln 2, minus the synonymous-codon median (not a log2 … | chain 1 K576H
-0.288 DMS score: mean over two replicates of log2(f_test/f_ref + 0.5)/ln 2, minus the synonymous-codon median (not a log2 … | chain 1 K576S
1.32 DMS score: mean over two replicates of log2(f_test/f_ref + 0.5)/ln 2, minus the synonymous-codon median (not a log2 … | chain 1 N549V
-1.02 DMS score: mean over two replicates of log2(f_test/f_ref + 0.5)/ln 2, minus the synonymous-codon median (not a log2 … | chain 1 N549R
-0.863 DMS score: mean over two replicates of log2(f_test/f_ref + 0.5)/ln 2, minus the synonymous-codon median (not a log2 … | chain 1 N549K
-1.27 DMS score: mean over two replicates of log2(f_test/f_ref + 0.5)/ln 2, minus the synonymous-codon median (not a log2 … | chain 1 N549Y
0.522 DMS score: mean over two replicates of log2(f_test/f_ref + 0.5)/ln 2, minus the synonymous-codon median (not a log2 … | chain 1 I560V
-2.26 DMS score: mean over two replicates of log2(f_test/f_ref + 0.5)/ln 2, minus the synonymous-codon median (not a log2 … | chain 1 Y587A
-2.81 DMS score: mean over two replicates of log2(f_test/f_ref + 0.5)/ln 2, minus the synonymous-codon median (not a log2 … | chain 1 Y587R
-0.234 DMS score: mean over two replicates of log2(f_test/f_ref + 0.5)/ln 2, minus the synonymous-codon median (not a log2 … | chain 1 Y587F
0.912 DMS score: mean over two replicates of log2(f_test/f_ref + 0.5)/ln 2, minus the synonymous-codon median (not a log2 … | chain 1 V554S
1.28 DMS score: mean over two replicates of log2(f_test/f_ref + 0.5)/ln 2, minus the synonymous-codon median (not a log2 … | chain 1 V554K
0.502 DMS score: mean over two replicates of log2(f_test/f_ref + 0.5)/ln 2, minus the synonymous-codon median (not a log2 … | chain 1 V554T

screen value | Variant
0.779 DMS score: mean over two replicates of log2(f_test/f_ref + 0.5)/ln 2, minus the synonymous-codon median (not a log2 … | chain 1 V554A
-0.15 DMS score: mean over two replicates of log2(f_test/f_ref + 0.5)/ln 2, minus the synonymous-codon median (not a log2 … | chain 1 V554W
-0.0296 DMS score: mean over two replicates of log2(f_test/f_ref + 0.5)/ln 2, minus the synonymous-codon median (not a log2 … | chain 1 V554I
0.641 DMS score: mean over two replicates of log2(f_test/f_ref + 0.5)/ln 2, minus the synonymous-codon median (not a log2 … | chain 1 L574R
0.584 DMS score: mean over two replicates of log2(f_test/f_ref + 0.5)/ln 2, minus the synonymous-codon median (not a log2 … | chain 1 L574K
0.59 DMS score: mean over two replicates of log2(f_test/f_ref + 0.5)/ln 2, minus the synonymous-codon median (not a log2 … | chain 1 L574N
-1.03 DMS score: mean over two replicates of log2(f_test/f_ref + 0.5)/ln 2, minus the synonymous-codon median (not a log2 … | chain 1 L574V
-1.31 DMS score: mean over two replicates of log2(f_test/f_ref + 0.5)/ln 2, minus the synonymous-codon median (not a log2 … | chain 1 N592H
-0.398 DMS score: mean over two replicates of log2(f_test/f_ref + 0.5)/ln 2, minus the synonymous-codon median (not a log2 … | chain 1 N592D
-0.129 DMS score: mean over two replicates of log2(f_test/f_ref + 0.5)/ln 2, minus the synonymous-codon median (not a log2 … | chain 1 K580H
-0.331 DMS score: mean over two replicates of log2(f_test/f_ref + 0.5)/ln 2, minus the synonymous-codon median (not a log2 … | chain 1 K580A
-0.165 DMS score: mean over two replicates of log2(f_test/f_ref + 0.5)/ln 2, minus the synonymous-codon median (not a log2 … | chain 1 K580I
-0.907 DMS score: mean over two replicates of log2(f_test/f_ref + 0.5)/ln 2, minus the synonymous-codon median (not a log2 … | chain 1 K580L
-0.508 DMS score: mean over two replicates of log2(f_test/f_ref + 0.5)/ln 2, minus the synonymous-codon median (not a log2 … | chain 1 K580C
-0.619 DMS score: mean over two replicates of log2(f_test/f_ref + 0.5)/ln 2, minus the synonymous-codon median (not a log2 … | chain 1 K580M
0.0627 DMS score: mean over two replicates of log2(f_test/f_ref + 0.5)/ln 2, minus the synonymous-codon median (not a log2 … | chain 1 K580V
0.21 DMS score: mean over two replicates of log2(f_test/f_ref + 0.5)/ln 2, minus the synonymous-codon median (not a log2 … | chain 1 I562V
-1.83 DMS score: mean over two replicates of log2(f_test/f_ref + 0.5)/ln 2, minus the synonymous-codon median (not a log2 … | chain 1 V565M
